According to US20110287979A1 (ONCOMED PHARMACEUTICALS, published 2011):

Target: T1, hJag1-rFc (human; rabbit, UniProt P78504 34-1067; P01870 96-323, limits assumed)
T1 construct: also called hJag-rFc; control antigen
Assay: FACS of transfected HEK-293 cells incubated with hJag-rFc and PE-labeled anti-rabbit Fc antibody
Procedure: The effect of carrier plasmid on the transfection and display of an Ab-encoding plasmid was tested. The single chain anti-DLL4 antibody (sc21M18) described above was transfected with varying ratios of carrier plasmid. In this study, the carrier plasmid encoded an irrelevant […] antibody (sc18R5). The cells were also transfected with the Membrane-MAb(hIgG2)-GFP construct. The concentration of Ab library plasmid in the cells could be inferred from the level of surface expression of the anti-DLL4 antibody molecule. Approximately 5×10⁶ HEK-293 cells were transfected with plasmid DNA and harvested after 48 hours. The plasmid DNA was a mixture of sc21M18 and sc18R5, wherein the ratio of sc21M18 to sc18R5 varied from 1 to 10,000-fold excess of sc18R5 (1, 10, 100, 1000 or 10,000-fold excess). For detection of a functional anti-DLL4 antibody molecule on the cell surface, transfected cells were incubated with an hDLL4-rFc fusion protein. Bound hDLL4-rFc was detected with a PE-labeled anti-rabbit Fc antibody. The percentage of cells which expressed anti-DLL4 antibody was determined by FACS analysis. Cells were also incubated with a control antigen (hJag-rFc, -▪-) or only the PE-labeled anti-rabbit Fc antibody (-▴-).

T1 sequence (P78504 other isoform, or with tags, fused parts or gaps limits assumed): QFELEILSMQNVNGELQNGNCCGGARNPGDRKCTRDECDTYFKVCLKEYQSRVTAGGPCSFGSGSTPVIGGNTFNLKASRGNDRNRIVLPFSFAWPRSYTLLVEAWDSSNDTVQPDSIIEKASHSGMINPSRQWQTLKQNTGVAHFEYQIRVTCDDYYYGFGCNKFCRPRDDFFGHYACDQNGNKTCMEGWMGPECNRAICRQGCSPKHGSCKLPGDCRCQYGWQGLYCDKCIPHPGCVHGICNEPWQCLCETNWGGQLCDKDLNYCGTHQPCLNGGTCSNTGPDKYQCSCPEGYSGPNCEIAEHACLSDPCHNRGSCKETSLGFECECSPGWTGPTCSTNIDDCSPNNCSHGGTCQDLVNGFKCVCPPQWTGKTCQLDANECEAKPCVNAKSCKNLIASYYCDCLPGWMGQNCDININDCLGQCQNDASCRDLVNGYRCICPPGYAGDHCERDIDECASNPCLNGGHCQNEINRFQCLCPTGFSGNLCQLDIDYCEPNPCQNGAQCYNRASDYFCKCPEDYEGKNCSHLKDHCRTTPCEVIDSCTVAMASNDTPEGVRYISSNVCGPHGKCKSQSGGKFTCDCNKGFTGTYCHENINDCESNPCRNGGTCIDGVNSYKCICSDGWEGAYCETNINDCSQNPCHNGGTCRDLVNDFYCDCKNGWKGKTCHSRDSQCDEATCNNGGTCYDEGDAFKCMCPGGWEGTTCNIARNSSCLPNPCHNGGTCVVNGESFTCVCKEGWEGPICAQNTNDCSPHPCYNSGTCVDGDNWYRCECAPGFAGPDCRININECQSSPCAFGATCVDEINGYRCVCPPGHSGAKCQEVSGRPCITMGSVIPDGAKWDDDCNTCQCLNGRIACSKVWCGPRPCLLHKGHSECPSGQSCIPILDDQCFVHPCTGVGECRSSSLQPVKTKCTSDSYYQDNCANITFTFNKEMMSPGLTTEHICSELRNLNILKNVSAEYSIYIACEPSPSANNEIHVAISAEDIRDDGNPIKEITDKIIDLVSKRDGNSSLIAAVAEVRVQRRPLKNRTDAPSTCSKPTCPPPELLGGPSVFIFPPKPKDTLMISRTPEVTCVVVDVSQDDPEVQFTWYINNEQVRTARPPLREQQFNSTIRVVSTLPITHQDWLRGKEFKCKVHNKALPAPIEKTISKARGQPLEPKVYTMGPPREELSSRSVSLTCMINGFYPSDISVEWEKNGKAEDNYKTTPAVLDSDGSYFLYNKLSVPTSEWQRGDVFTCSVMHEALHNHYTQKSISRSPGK

B1: heterodimeric antibody molecule: single chain anti-DLL4 antibody sc21M18 associated with the Membrane-MAb(hIgG2)-GFP protein on the surface of HEK-293 cells (antibody)
chain 1: DIVMTQSPDSLAVSLGERATISCRASESVDNYGISFMKWFQQKPGQPPKLLIYAASNQGSGVPDRFSGSGSGTDFTLTISSLQAEDVAVYYCQQSKEVPWTFGGGTKVEIKRTVAAPSVFIFPPSDEQLKSGTASVVCLLNNFYPREAKVQWKVDNALQSGNSQESVTEQDSKDSTYSLSSTLTLSKADYEKHKVYACEVTHQGLSSPVTKSFNRGECGGGGGSGGGGSGGGGSGGGGSGGGGSGGGGSQVQLVQSGAEVKKPGASVKISCKASGYSFTAYYIHWVKQAPGQGLEWIGYISSYNGATNYNQKFKGRVTFTTDTSTSTAYMELRSLRSDDTAVYYCARDYDYDVGMDYWGQGTLVTVSSASTKGPSVFPLAPCSRSTSESTAALGCLVKDYFPEPVTVSWNSGALTSGVHTFPAVLQSSGLYSLSSVVTVPSSNFGTQTYTCNVDHKPSNTKVDKTVERKCCVECPPCPAPPVAGPSVFLFPPKPKDTLMISRTPEVTCVVVDVSHEDPEVQFNWYVDGVEVHNAKTKPREEQFNSTFRVVSVLTVVHQDWLNGKEYKCKVSNKGLPAPIEKTISKTKGQPREPQVYTLPPSREEMTKNQVSLTCLVKGFYPSDIAVEWESNGQPENNYKTTPPMLDSDGSFFLYSKLTVDKSRWQQGNVFSCSVMHEALHNHYTQKSLSLSPGK
chain 2: not shown
notes: also called anti-DLL4 antibody molecule
**Q.** Does B1 bind?
**A.** Result: no binding
